In US20220220224A1 (Hoffmann-La Roche, published 2022):

Assays:
[1] = target: T1, recombinant biotinylated monomeric Fc fusion of cynomolgus Folate Receptor 1 (cy FolR1 ECD-AcTev-Fcknob-Avi … (cynomolgus, UniProt P0DOX5 223-449 = IgG part, biotin on the C-terminal Avi tag)); assay: SPR Biacore, affinity (monovalent), antibody captured via anti-Fab
T1 construct: also called cyFolR1-Fc; cyno FolR1
Protocol: (§1) The affinity of the interaction between the anti-FolR1 IgG or T cell bispecifics and the recombinant folate receptors was determined as described below (Table 26).
(§2) For affinity measurement, direct coupling of around 12000 resonance units (RU) of the anti-human Fab specific antibody (Fab capture kit, GE Healthcare) was performed on a CM5 chip at pH 5.0 using the standard amine coupling kit (GE Healthcare). Anti-FolR1 IgG or T cell bispecifics were captured at 20 nM with a flow rate of 10 μl/min for 40 sec, the reference flow cell was left without capture. […] The dissociation phase was monitored for 300 s and triggered by switching from the sample solution to HBS-EP. The chip surface was regenerated after every cycle using a double injection of 60 sec 10 mM Glycine-HCl pH 1.5. Bulk refractive index differences were corrected for by subtracting the response obtained on the reference flow cell 1. The affinity constants for the interactions were derived from the rate constants by fitting to a 1:1 Langmuir binding using the Bia Evaluation software (GE Healthcare).

[2] = target: T2, recombinant biotinylated monomeric Fc fusion of human Folate Receptor 1 (huFolR1 ECD-AcTev-Fcknob-Avi tag … (human, UniProt P0DOX5 223-449 = IgG part, biotin on the C-terminal Avi tag)); assay: as above
T2 construct: also called huFolR1-Fc; human FolR1-Fc
Protocol: as §1, §2

[3] = target: T3, recombinant biotinylated monomeric Fc fusion of murine Folate Receptor 1 (mu FolR1 ECD-AcTev-Fcknob-Avitag … (murine, UniProt P0DOX5 223-449 = IgG part, biotin on the C-terminal Avi tag)); assay: as above
T3 construct: also called muFolR1-Fc; murine FolR1
Protocol: as §1, §2

[4] = target: T4, human FolR2 on transfected HEK cells (human, UniProt P14207 17-230); assay: flow cytometry on transfected HEK cells
T4 construct: whole, on cells
T4 sequence (P14207 17-230): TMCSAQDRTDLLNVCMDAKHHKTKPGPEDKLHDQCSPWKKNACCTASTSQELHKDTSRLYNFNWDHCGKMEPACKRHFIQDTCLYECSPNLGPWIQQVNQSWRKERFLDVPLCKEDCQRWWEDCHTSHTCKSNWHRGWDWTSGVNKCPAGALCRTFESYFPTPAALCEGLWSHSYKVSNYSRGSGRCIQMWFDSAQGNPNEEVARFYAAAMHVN

B1: 36F2 IgG (antibody, V domains shown)
VH: QVQLVQSGAEVKKPGASVKVSCKASGYTFTSYYMHWVRQAPGQGLEWMGIINPSGGSTSYAQKFQGRVTMTHDTSTSTVYMELSSLRSEDTAVYYCARSFFTGFHLDYWGQGTLVTVSS
VL: EIVLTQSPGTLSLSPGERATLSCRASQSVSSSYLAWYQQKPGQAPRLLIYGASSRATGIPDRFSGSGSGTDFTLTISRLEPEDFAVYYCQQYTNEHYYTFGQGTKVEIK
In the case of B1, the Kd [1] is reported as 570 nM, the koff [1] is reported as 0.0578 s⁻¹ and the kon [1] is reported as 102000 M⁻¹ s⁻¹. The Kd [2] was 730 nM, the koff [2] was 0.0665 s⁻¹ and the kon [2] was 91000 M⁻¹ s⁻¹. For the same binder, the Kd [3] was 210 nM, the koff [3] was 0.0178 s⁻¹ and the kon [3] was 83200 M⁻¹ s⁻¹. B1: no binding [4].
